# ± gives the standard deviation of the averaged measurements.
# System: ATP
# Assay: switch fluorescence ratio, 500 uM ATP over buffer (Cy3 cluster intensity, sum of 5 cycles each) (fold (ratio)); higher = stronger signal-on switching upon ATP binding; sequences stand for … in TCGTCGGCAGCGTCAGATGTGTATAAGAGACAGTTTTTTTTTTTTTTTTTTTTTTTTT…TC
# Conditions: aptamer strand: ATP DNA aptamer (quencher-CACCTGGGGGAGTATTGCGGAGGAAGG + anchor), 100 nM annealed; ATP concentration: 500 uM
# Summary of the method: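 Five buffer/ATP imaging cycles were run on Cy3-labelled switching-strand clusters on a modified Illumina MiSeq flow-cell, with NaOH stripping and re-annealing between cycles. In each cycle, clusters annealed to 100 nM quencher-labelled ATP aptamer were imaged in selection buffer, then after 15 min with 500 uM ATP at 22 °C. Per cluster, the fluorescence ratio is summed target-cycle over summed buffer-cycle Cy3 intensity, averaged per switch-domain sequence. Only clusters within 100-1000 RFU were kept.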
# 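Note: ATP exposure 15 min at 22 °C before imaging.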
row,Sequence,switch fluorescence ratio
1,AGTTAGTAAG,1.01 ± 0.04
2,AGTTAGTTAG,0.987 ± 0.011
3,AGTTATGTAG,1.01 ± 0.052
4,AGTTATGTTT,0.956 ± 0.051
5,AGTTCAACCT,1.65 ± 0.19
6,AGTTCAGAAC,0.9899 ± 0.0075
7,AGTTCGGGCA,0.998 ± 0.021
8,AGTTCTAGGA,0.953 ± 0.03
9,AGTTCTCAGT,0.997 ± 0.018
10,AGTTCTGGTT,0.965 ± 0.011
11,AGTTCTGTCG,1.01 ± 0.09
12,AGTTCTTGGC,1.02 ± 0.0042
13,AGTTGCACGT,0.954 ± 0.041
14,AGTTGCGTAG,0.989 ± 0.021
15,AGTTGCGTTA,0.963 ± 0.025
16,AGTTGGCGGG,1.018 ± 0.005
17,AGTTGGCTTA,1.01 ± 0.013
18,AGTTGGGCAT,0.995 ± 0.017
19,AGTTGGGGGA,0.984 ± 0.014
20,AGTTGGTCTC,1.13 ± 0.12
21,AGTTGTATT,0.967 ± 0.022
22,AGTTGTCTCT,0.979 ± 0.035
23,AGTTGTGAGT,0.9726 ± 0.0077
24,AGTTGTTATT,1.027 ± 0.0088
25,AGTTGTTTGT,0.966 ± 0.016

row,Sequence,switch fluorescence ratio
1,AGTTGTTTTT,0.983 ± 0.025
2,AGTTTAACTA,1 ± 0.025
3,AGTTTAAGGA,1.01 ± 0.025
4,AGTTTACGAA,1.01 ± 0.0069
5,AGTTTACGTG,1 ± 0.0033
6,AGTTTCGCGG,0.9632 ± 0.0037
7,AGTTTCGCTA,0.992 ± 0.024
8,AGTTTCGGGC,0.974 ± 0.033
9,AGTTTGAGGA,1.01 ± 0.014
10,AGTTTGATAT,0.999 ± 0.017
11,AGTTTGCCAG,0.96403 ± 0.00025
12,AGTTTGGGCA,0.975 ± 0.029
13,AGTTTGGGGC,0.984 ± 0.045
14,AGTTTGGGGG,0.966 ± 0.029
15,AGTTTGGTGT,0.997 ± 0.026
16,AGTTTGTGGC,0.965 ± 0.012
17,AGTTTGTTGC,1 ± 0.012
18,AGTTTTAACG,0.974 ± 0.073
19,AGTTTTATCC,1.006 ± 0.0052
20,AGTTTTATTT,0.968 ± 0.032
21,AGTTTTCCTG,0.985 ± 0.015
22,AGTTTTGGGG,0.981 ± 0.043
23,AGTTTTTAAA,1.027 ± 0.0039
24,AGTTTTTATG,1.026 ± 0.0028
25,AGTTTTTCCA,1.02 ± 0.031

row,Sequence,switch fluorescence ratio
1,AGTTTTTCGT,1.01 ± 0.019
2,AGTTTTTGAG,1 ± 0.013
3,AGTTTTTGCT,0.9736 ± 0.0065
4,AGTTTTTGTT,0.987 ± 0.024
5,AGTTTTTTCG,0.973 ± 0.023
6,AGTTTTTTGG,1.01 ± 0.033
7,AGTTTTTTTT,0.997 ± 0.028
8,ATAAAAAAAG,1.05 ± 0.021
9,ATAAAAAGGA,1.0058 ± 0.00029
10,ATAAAAGAAG,1.01 ± 0.041
11,ATAAACCTTG,1.16 ± 0.031
12,ATAAACGTTA,1.1 ± 0.018
13,ATAAAGAAGC,1.02 ± 0.022
14,ATAAAGCGGC,0.994 ± 0.047
15,ATAAAGGTCT,0.984 ± 0.0053
16,ATAAATGACG,1.02 ± 0.037
17,ATAAATGCGT,1.002 ± 0.0031
18,ATAACAAGAC,1.32 ± 0.067
19,ATAACAGGAT,0.986 ± 0.033
20,ATAACGGGGA,0.999 ± 0.015
21,ATAAGAATTG,1.01 ± 0.06
22,ATAAGACTGT,1.03 ± 0.018
23,ATAAGAGGAG,0.995 ± 0.022
24,ATAAGCGGAG,1 ± 0.013
25,ATAAGCGTGG,0.995 ± 0.082

row,Sequence,switch fluorescence ratio
1,ATAAGGAGGT,1.012 ± 0.0081
2,ATAAGGAGTT,1.01 ± 0.045
3,ATAAGGCCTG,1.03 ± 0.075
4,ATAAGGGGGC,0.989 ± 0.041
5,ATAAGGGGGT,0.973 ± 0.016
6,ATAAGGGTCC,1.04 ± 0.066
7,ATAAGGTGAG,0.998 ± 0.035
8,ATAAGTCTGT,1.008 ± 0.0073
9,ATAAGTGGA,0.997 ± 0.062
10,ATAAGTGGGA,0.986 ± 0.076
11,ATAATAGGCG,0.985 ± 0.0028
12,ATAATCACCT,1.23 ± 0.019
13,ATAATCCCGA,1.02 ± 0.015
14,ATAATCGAGT,0.9837 ± 0.0076
15,ATAATGAGGT,1.01 ± 0.042
16,ATAATGGCTT,0.988 ± 0.025
17,ATAATGGGCA,0.983 ± 0.064
18,ATAATGGTC,1.003 ± 0.008
19,ATAATGTATA,0.9835 ± 0.0028
20,ATAATGTGAA,1.03 ± 0.017
21,ATAATGTTGT,0.991 ± 0.031
22,ATAATTATCG,0.972 ± 0.046
23,ATAATTGAGC,1.04 ± 0.027
24,ATAATTGGG,0.978 ± 0.097
25,ATAATTTAAT,0.9986 ± 0.0074

# Source: the supplement of paper PMC10126150
